Test results from US20200216532A1 (Ablynx, published 2020).

Assays:
Assay in all cases: SPR, interference factor immobilized
[1] = biological target: T1, purified interference factor(s), Donor C
T1 construct: also called interference in serum from Donor C

[2] = biological target: T2, purified interference factor(s), Donor A
T2 construct: also called interference in serum from Donor A

[3] = biological target: T3, purified interference factor(s), Donor B
T3 construct: also called interference in serum from Donor B

Binder | % of binding of reference (=100%) [1] | % of binding of reference (=100%) [2] | % of binding of reference (=100%) [3]
SEQ ID NO: 87 (VHH, Ex. 8) VHH: EVQLVESGGGSVQPGGSLRLSCAASRSIGRLDRMGWYRHRPGEPRELVATITGGSSINYGDSVKGRFTISIDNSKNTVYLQMNSLRPEDTAVYYCNFNKYVTSRDTWGQGTLVTVGG | 39% | 51% | 5%
SEQ ID NO: 79 (VHH, Ex. 8) VHH: EVQLVESGGGLVQPGGSLRLSCAASRSIGRLDRMGWYRHRPGEPRELVATITGGSSINYGDSVKGRFTISIDNSKNTVYLQMNSLRPEDTAVYYCNFNKYVTSRDTWGQGTLVTVSS | 13% | 1% | 17%
SEQ ID NO: 75 (VHH, Ex. 8) VHH: EVQLVESGGGLVQPGGSLRLSCAASRSIGRLDRMGWYRHRPGEPRELVATITGGSSINYGDSVKGRFTISIDNSKNTVYLQMNSLRPEDTAVYYCNFNKYVTSRDTWGQGTLVTVSS | 16% | 1% | 11%
SEQ ID NO: 76 (VHH, Ex. 8) VHH: EVQLVESGGGLVQPGGSLRLSCAASRSIGRLDRMGWYRHRPGEPRELVATITGGSSINYGDSVKGRFTISIDNSKNTVYLQMNSLRPEDTAVYYCNFNKYVTSRDTWGQGTLVTVSS | 20% | 2% | 17%
SEQ ID NO: 74 (VHH, Ex. 8) VHH: EVQLVESGGGLVQPGGSLRLSCAASRSIGRLDRMGWYRHRPGEPRELVATITGGSSINYGDSVKGRFTISIDNSKNTVYLQMNSLRPEDTAVYYCNFNKYVTSRDTWGQGTLVTVSS | 33% | 4% | 41%
SEQ ID NO: 89 (VHH, Ex. 8) VHH: EVQLVESGGGSVQAGGSLRLSCAASRSIGRLDRMGWYRHRPGEPRELVATITGGSSINYGDSVKGRFTISIDNSKNTVYLQMNSLRPEDTAVYYCNFNKYVTSRDTWGQGTLVQVGG | 17% | 14% | 5%
SEQ ID NO: 88 (VHH, Ex. 8; L11S, T110Q) VHH: EVQLVESGGGSVQPGGSLRLSCAASRSIGRLDRMGWYRHRPGEPRELVATITGGSSINYGDSVKGRFTISIDNSKNTVYLQMNSLRPEDTAVYYCNFNKYVTSRDTWGQGTLVQVSS | 11% | 1% | 5%
SEQ ID NO: 73 (VHH, Ex. 8; S112G, S113G) VHH: EVQLVESGGGLVQPGGSLRLSCAASRSIGRLDRMGWYRHRPGEPRELVATITGGSSINYGDSVKGRFTISIDNSKNTVYLQMNSLRPEDTAVYYCNFNKYVTSRDTWGQGTLVTVGG | 9% | 6% | 8%
SEQ ID NO: 77 (VHH, Ex. 8) VHH: EVQLVESGGGLVQPGGSLRLSCAASRSIGRLDRMGWYRHRPGEPRELVATITGGSSINYGDSVKGRFTISIDNSKNTVYLQMNSLRPEDTAVYYCNFNKYVTSRDTWGQGTLVTVSS | 13% | 2% | 12%
